Where only a bound is given, the exact number is not on record here.

The subject of this data set is TALE-TadA8e(V106W) (Escherichia coli). The experiment in a line: cell_activity. The note with it: paired TALE-TadA8e(V106W) without nickase, value is the maximum over three loci.

Regarding MT-ND1 target, the activity is less than 0.39%.
Still for that read-out and setting: the figure for MT-ND4 target is less than 0.39%.
In turn, MT-RNR2 target gave an activity (barely above sequencing error) of less than 0.39%.

The values are drawn from patent US20260207779.
